These are literature values, as cited in PMC7349879.

Where only a bound is given, the exact number is not on record here.

The target in one data set is EpCAM (Homo sapiens) (UniProt P16422).
The target of data set [1] is EpCAM cis-dimer (Homo sapiens) (UniProt P16422).
The target of another data set is β-catenin (Homo sapiens) (UniProt P35222).
Chain of UniProt P35222 (P35222 2-781): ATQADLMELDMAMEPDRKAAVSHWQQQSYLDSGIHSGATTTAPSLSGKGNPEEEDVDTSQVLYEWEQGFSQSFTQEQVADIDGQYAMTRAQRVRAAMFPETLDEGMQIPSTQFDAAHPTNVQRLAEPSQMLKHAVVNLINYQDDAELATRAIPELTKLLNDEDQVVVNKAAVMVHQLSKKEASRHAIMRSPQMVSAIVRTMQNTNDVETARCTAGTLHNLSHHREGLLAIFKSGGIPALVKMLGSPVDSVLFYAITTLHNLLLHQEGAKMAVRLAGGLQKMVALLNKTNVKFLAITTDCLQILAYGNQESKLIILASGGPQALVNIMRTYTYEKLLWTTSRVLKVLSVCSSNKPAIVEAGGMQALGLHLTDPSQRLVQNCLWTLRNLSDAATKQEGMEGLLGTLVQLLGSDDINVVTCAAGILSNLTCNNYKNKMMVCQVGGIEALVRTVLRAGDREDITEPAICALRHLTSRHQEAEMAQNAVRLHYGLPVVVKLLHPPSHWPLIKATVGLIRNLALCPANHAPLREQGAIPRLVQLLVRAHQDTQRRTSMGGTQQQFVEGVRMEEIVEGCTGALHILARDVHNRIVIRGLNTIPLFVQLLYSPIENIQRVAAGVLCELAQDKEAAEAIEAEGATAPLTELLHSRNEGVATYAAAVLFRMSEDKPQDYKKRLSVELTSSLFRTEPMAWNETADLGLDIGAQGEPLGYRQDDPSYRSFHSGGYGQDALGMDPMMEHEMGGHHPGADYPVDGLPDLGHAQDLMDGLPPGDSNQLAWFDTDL

Consider EpCAM (from UniProt P16422), for which the Kd with EpCAM (Homo sapiens) was less than 10 nM.
In the case of EpCAM cis-dimer (from UniProt P16422), the Kd in data set [1] was 10000 nM.
Regarding FHL2 (from UniProt Q14192), the Kd in the data set with β-catenin (Homo sapiens) is 1080 nM.
